Assay results: publication PMC4335062, “Data-Driven Prediction and Design of bZIP Coiled-Coil Interactions” (PLoS Computational Biology, 2015)
Read-outs that look alike come from different tables or passages of the source. One block for each molecule: values may come before it. Where no end group is shown, it is not given here.

What was measured:
[1] = target: T1, XBP1 (Homo sapiens, UniProt P17861); assay: Direct-binding FRET assay; conditions: C-terminal rhodamine design
T1 construct: made in house
T1 sequence (P17861 70-133 limits assumed): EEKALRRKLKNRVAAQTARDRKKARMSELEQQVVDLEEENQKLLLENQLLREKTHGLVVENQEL
Protocol: (§1) The direct binding assay was performed manually in 384-well plates and is similar to a previously described assay. Wells were filled with 20 μL of 1 mM TCEP-HCl. A 4 μM stock of acceptor protein was made fresh in 1 mM TCEP-HCl, and 20 μL was titrated in 2-fold dilutions over the wells. […] The direct-binding FRET data were fit as previously described. Briefly, the Kd of the designed peptide homodimer was experimentally determined and used with previously determined target homodimer Kd values to determine the heterodimer Kd. The homodimer Kd values used for the human bZIPs were from; experiments done by […] et al. used the same protein constructs for the human bZIP proteins, the same buffer conditions, and the same assay. The fitting used a system of ordinary differential equations to describe the concentrations of homo and heterodimers formed by the donor (D) and acceptor (A) as a function of the heterodimer Kd. MATLAB was used to simulate the binding experiment for different Kd values, and the value that gave the best agreement between simulation and experiment was assigned. A minimum 15% change in the donor fluorescence upon titrating the acceptor peptide from 0 to 1000 nM was required for a fit to be attempted. If this minimum was not met, the interaction was classified as “NS” for no signal change. […] For such curves, we removed the first five points and re-fit the data.

[2] = target: T2, ATF3 (Homo sapiens, UniProt P18847); assay: Direct-binding FRET assay; conditions: C-terminal rhodamine design, mean or single, read-out: Kd
T2 construct: made in house
T2 sequence (P18847 86-149 limits assumed): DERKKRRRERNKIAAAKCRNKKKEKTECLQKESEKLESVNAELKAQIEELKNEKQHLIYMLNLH
Protocol: as §1

[3] = target: JUN (Homo sapiens, UniProt P05412); assay: Direct-binding FRET assay; design: made in house; conditions: 37°C; C-terminal rhodamine design; mean or single; read-out: Kd
Protocol: as §1

[4] = target: XBP1 bZIP (Homo sapiens) (UniProt P17861); conditions: cited from earlier work
[5] = target: partner bZIP coiled coil (Protein2); conditions: cited from earlier work
Protocol: Supplement pcbi.1004046.s020.csv, table | column: Kd || Fig 4 Designed bZIP-binding peptides inhibit interactions of native bZIP dimers. […] The dissociation constants at the indicated temperatures are Kd ≤ 1 nM for FOS-JUN, Kd ≤1 nM for XBP1-CREBZF, and Kd = 60 nM for ATF4-FOS, according to [18]. Fluorescence intensities were measured at both 37°C and 23°C, a ...

[6] = target: BATF2 bZIP, C-terminally fluoresceinated (human) (UniProt Q8N1L9); assay: FRET or BRET; direct-binding FRET at 4°C; 10 nM fluorescein-labelled bZIP (donor), rhodamine-labelled design (acceptor) titrated 0 to 1 μM; 150 mM KCl, 50 mM potassium phosphate pH 7.4, 0.1% Tween-20, 0.1% BSA
BATF2 bZIP, C-terminally fluoresceinated (human), sequence (Q8N1L9 whole entry): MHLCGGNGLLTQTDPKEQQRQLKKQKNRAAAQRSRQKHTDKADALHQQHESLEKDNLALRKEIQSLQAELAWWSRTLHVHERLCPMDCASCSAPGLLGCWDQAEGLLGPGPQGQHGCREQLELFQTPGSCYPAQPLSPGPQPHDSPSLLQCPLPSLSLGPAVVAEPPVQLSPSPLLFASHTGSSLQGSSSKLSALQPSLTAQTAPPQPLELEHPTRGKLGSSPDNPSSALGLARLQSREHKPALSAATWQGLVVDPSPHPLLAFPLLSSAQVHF

[7] = target: T3, Activating Transcription Factor 4 (ATF4) bZIP construct, C-terminally fluoresceinated (human, UniProt P18848 278-351, fluorescein at the C-terminus); assay: FRET or BRET; direct-binding FRET at 37°C; 10 nM fluorescein-labelled bZIP (donor), rhodamine-labelled design (acceptor) titrated 0 to 1 μM; 150 mM KCl, 50 mM potassium phosphate pH 7.4, 0.1% Tween-20, 0.1% BSA; conditions: both partners purified
T3 construct: source: previously described, donated by A.W. Reinke [18]
T3 sequence (looked up): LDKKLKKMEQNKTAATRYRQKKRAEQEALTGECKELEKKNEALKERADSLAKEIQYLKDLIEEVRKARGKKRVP

- Kd ([1]; 37°C, mean or single, read-out: Kd): ≥ 5 µM
- binding to XBP1 ([1]; 4, 23 or 37°C): did not bind detectably
Molecule: AETDQLENRVKDLKKKNESLKEEKRQASNKYKALLTNNRSLKVKA [XBP1-d2]

- Kd ([2]; 4°C): 117 nM
- Kd ([2]; 37°C): ≥ 5000 nM
Molecule: KDAASLENKKEELKVQNRILVDERKYLQMMNSELKDELAAHE [ATF3-d3]

- Kd ([2]; 37°C): ~1000 nM
Molecule: NDLARLENKAEELKVQNRILVDERKYLQREISELHDELAAHE [ATF3-d1]

- Kd ([2]; 37°C): 564 nM
Molecule: NLVAQLEKKNEALKAENAALEIERIQLQDKIEELKYELAAIE [ATF3-d2]

- Kd [3]: 1 nM
Molecule: QRALQLQKEKERLEKMNKKLAAEIESLLEERERLESVLNYHE [JUN-d2]

Molecule: XBP1 bZIP (from UniProt P17861)
- Kd [4]: 8 nM

B1: ATF2: native human bZIP coiled coil (protein)
chain: MKFKLHVNSARQYKDLWNMSDDKPFLCTAPGCGQRFTNEDHLAVHKHKHEMTLKFGPARNDSVIVADQTPTPTRFLKNCEEVGLFNELASPFENEFKKASEDDIKKMPLDLSPLATPIIRSKIEEPSVVETTHQDSPLPHPESTTSDEKEVPLAQTAQPTSAIVRPASLQVPNVLLTSSDSSVIIQQAVPSPTSSTVITQAPSSNRPIVPVPGPFPLLLHLPNGQTMPVAIPASITSSNVHVPAAVPLVRPVTMVPSVPGIPGPSSPQPVQSEAKMRLKAALTQQHPPVTNGDTVKGHGSGLVRTQSEESRPQSLQQPATSTTETPASPAHTTPQTQSTSGRRRRAANEDPDEKRRKFLERNRAAASRCRQKRKVWVQSLEKKAEDLSSLNGQLQSEVTLLRNEVAQLKQLLLAHKDCPVTAMQKKSGYHTADKDDSSEDISVPSSPHTEAIQHSSVSTSNGVSSTSKAEAVATSVLTQMADQSTEPALSQIVMAPSSQSQPSGS
modifications: fluorescein at the C-terminus (FRET donor) or TAMRA (FRET acceptor), by assay
notes: native human bZIP coiled coil
- Kd ([5]; Protein2 = ATF6 (HS), intra, 5000 assigned if Kd >5,000 nM or no binding): 5000 nM
- Kd ([5]; Protein2 = CE20 (CE), inter, 5000 assigned if Kd >5,000 nM or no binding): 5000 nM

- FRET efficiency [6]: 0.65
B2: ATF5-d1, rhodamine-labelled at the N-terminus (designed binder)
chain: GESKEYKKGSGSC(Rhodamine Red C2‑maleimide)GKRIAYLRQRIAELRNENHVLESRIQRMEKEKDALQQDRDHLEYEL

B3: ATF5: native human bZIP coiled coil (protein)
chain: MSLLATLGLELDRALLPASGLGWLVDYGKLPPAPAPLAPYEVLGGALEGGLPVGGEPLAGDGFSDWMTERVDFTALLPLEPPLPPGTLPQPSPTPPDLEAMASLLKKELEQMEDFFLDAPPLPPPSPPPLPPPPLPPAPSLPLSLPSFDLPQPPVLDTLDLLAIYCRNEAGQEEVGMPPLPPPQQPPPPSPPQPSRLAPYPHPATTRGDRKQKKRDQNKSAALRYRQRKRAEGEALEGECQGLEARNRELKERAESVEREIQYVKDLLIEVYKARSQRTRSC
modifications: fluorescein at the C-terminus (FRET donor) or TAMRA (FRET acceptor), by assay
notes: native human bZIP coiled coil
- Kd ([5]; Protein2 = CEBPE (HS), intra): 27.8 nM
- Kd ([5]; Protein2 = CI20 (CI), inter): 551 nM

- FRET efficiency [6]: 0.31
- Kd [7]: 4.9 ± 1 nM
B4: ATF5-d1, rhodamine-labelled at the C-terminus (designed binder)
chain: GESKEYKKGSGSKRIAYLRQRIAELRNENHVLESRIQRMEKEKDALQQDRDHLEYELGC(Rhodamine Red C2‑maleimide)
notes: solubility linker after the His tag; added at the C-terminus for labelling; source: E. coli RP3098, purified (Ni-NTA under denaturing conditions, reverse-phase HPLC)
